Assay: label from the status in PepcDB records

Sequence | protein production
MLQRFYETLSTLRARWTRFTESPMGAWVRTGLRWLFVGGIVAYLAYELTTIGWGEVARALPVTPWFYVLLLLMYGTLPLTEAVLYGTAWGAQYRDLLPVLFRKRVLNNDVLGYSGEAYFYLWARRETNLGTGTVLRTVKDNVVISSVASTSVAFGLLAVFFLTGQIELLRQYLPSEAYTLGAGVAVLIILVSAVVAFRRSILSLPSSLLGLFAAGHVARFVLNNGLQVTQWAVVIPEVSAGTWITLLALYIVIQQVPFVPSRGLVFMSAGVGLSGPLQIPEAPLASMLLAQSLLDRGLNFLVYTGTTAAEAVGDDVEELDDLSIPEEMG | failed
FEPRSLITSDKGFVTMTLESLEEIQDVSCAWKELNRKLSSNAVSQITRMCLLKGNMGVCFDVPTTESERLQAEWHDSDWILSVPA | not failed
MLLVGVAIAFLHKYIVLVVLTSILITACQGDIIDNPNLESNVPQSTDCRVVEHAVGKTKICGKPKKIAVLEPKMLSLMLALDVQPAAYADAYLVNAPQFDNPSQQIPYLGKYVTSQPINLGDRSSPSLEALTLLKPDLILGLNYQDNQLFSAIAPTVFIDNEQNWQESIKIVAKALDSQKNIPSIITSQQQQLAKVRAQLESLVSTHPRVLNIVCSQLMDYIEVTYNGNTIEILEKIGFQPVFLPDIERKPGLRPQITLETLAQLDADIVIVNTWVDNWNGKSTYTVPLKELKQKWAKNPLLHNSQAWKEGRVYFVDYTLWGNVIGAPIANALILEQLPSLLLSNTLKP | failed
MTDRQLIVLAALNIMVAVGAGAFGAHGLRRVVDPTLLAIWHTGVLYHLIHALGLFVVALLGARFGSPLLSMAGLVMFIGILLFCGSLYVLVLTGTRWLGAVTPLGGVAFLAAWAMVAWAAWRAPA | failed
MKDLYQKFIYLIPSIIIFLITLSVTLKYSWPIGWDIFYHIHLSKVYMANGLTFFDPIYNAPGTIINYPPVFHLVILVLGYVLRMDLFDVARLMQPFLAALVALSVTVVASRLYEDKYVGIFAGLILFSGSIAMRLGSSLPENMALIFLPLSIFFFYEFFKDDKIIASFISGCLTGLVALIHPAATFCLVFAITFITAGLVITEFYFERDTGVIKRALKGYAILIGTAGLIASVWWLPAFYFKSLGHGGVATSLSVSRSLSILKYPDALGYFVLVLAVAGIIPAIRRFELRDRLILLWIISMFILSKSYYFGINVITYRVLIYIMIPLTILASSGLISVVEAIKNKNKDIARILLIALFIFAVFQAFNNLSSSKVADYGAMTAYGRINIAPPTDSEFELAKWFNSQNEDGKISLSNYFTGGFVMAYTNRPVDSLLYEKSEIPSRDELTEREISYLVFDKRLKASGDFKFNASSSFLFYNPNRINISDLEYPYLQKIYENQDFVVYRVL | failed
MEDKRNRGRRITDRITEAYYELMKIVAENNHERMFEYYVEDDEAYIFKIVNSSPAQETVYPFFKQNIDTYMSECPADSIECFKKQLDKCLLRPMRTAFQLSFISEDGKSRPVEMYMVSIPDLDKKVCMVVGVMFDIRDEKGLLDSLTGTYNHLAFENKCTSLIRQKGTKLLFVMLDVDDFKIVNDTLGHNVGDRVLSQTGQVLKEAVGANGIVGRLGGDEFAAIVFGLEDSDAVDEFCVKLSGRLKNIIFDMEYSASIGMTTGDDRELTFKDLYYEADQAMYYSKRQGKNRISFFNSIRKNDITVPHNSCAPSITDVSCRMSDREIFSYDEMPDYILAVDEESRRIVFVNKAIRNSSVMTASQIDEFISKPFEDGFIDLFLRKKEQGNRVSVFQERIIPTI | failed
MEGNCSQGRFDSQVSSMRDLRPNAINQNQKQHHPNSRQDSGFNNTMDTRHNNVDRGKKSMSEDDELCLLSSDGQNKSKENSPWQRVKWMDKMVKLMITALSYIGEDSGSDKKFAVLQKKGKWRSVSKVMDERGYHVSPQQCEDKFNDLNKRYKKLNEMLGRGTSCEVVENPSLLDKIDYLNEKEKDEVRRIMSSKHLFYEEMCSYHNGNRLHLPHDPAVQRSLHLITLGSRDDHDNDEHGKHQNEDLDDDDDYEEDHDGALSDRPLKRLRQSQSHEDVGHPNKGYDVPCLPRSQADVNRGISLDSRKAAGLQRQQIESKSLELEGRKLQIQAEMMELERQQFKWEVFSKRREQKLAKMRMENERMKLENERMSLELKRIELGAKL | failed
MSLYTILVVDDSPMIVDVFVTMLERGGYRPITAFSGEECLEALNATPPDLVLLDIMMEPMDGWETLERIKTDPATRDIPVLMLTAKPLTPEEANEYGSYIEDYILKPTTHHQLYEAIEHVLARRHSIAADEGHHHHHH | not failed
AQSDGWSPKDHNLIKSVREDGRFLSSYGVVHAMLRNTEPRYAFHRDFSPKEFRKWQKGLRHAMEEIMKFPQIKNSPAPVCIKREQREGYRLEKWEFYPLPKCVSTFLVLIPDNINKPVPAILCIPGSGGNKEGLAGEPGIAPKLNDRYKDPKLTQALNFVKEGYIAVAVDNPAAGEASDLERYTLGSNYDYDVVSRYLLELGWSYLGYASYLDMQVLNWMKTQKHIRKDRIVVSGFSLGTEPMMVLGTLDTSIYAFVYNDFLCQTQERAEVMTMPDKNGRRPFPNSIRHLIPDFWKNFNFPDIVAALAPRPIILTEGGLDRDLDLVRKAYAIVGTPDNVKIYHYKKFSDPDTRKNVEYLPEGLDRNEYFRMVNVDGPNHYFKSELVVPWLRKLLEER | not failed
MGKINTDPAATSGIKVLDRAVSIMLAVAERPLSLTELCDVTNLPRATAHRLATALETHNILTRTSDGKWTIGAVLSSLGA | failed
MALLKSPIFGICFSLILYTIGQDLFKKSKGFFLLQPLFFAMVAGIIVLVLLAKGLGTDVKTLYTQAYKPGGDLIFWFLNPATIAFAVPLYKKNDAVKKYWKEIISSLIIGMVVSLIIIVAISKAIGLSQASTASMLPQAATTAIALPIAHAIGGNTAITAMACILNAVIIYALGKKLVALFHLNKSEIGVGLGLGTSGHTVGAAFALELGELQGAMAAIAVVVIGLVVDLVIPIFSYMIGLVH | failed
MDTVVLVLMLLTAFNFLLKQTFWKLIAVGIITAICAVFAGLMWPYAIEQSKTQIANWLSNQPLMLDTSVLLSVEVCIQMAYAMLAVHVANDYPVKPRMILMYRFLRWFPGLLIFPVLFSGLVYLIFAFPGTSFQTIAWSYAAFILAAIPCGRFILLYLLPEKELRLELFFLTNALVAVLGIVATVNGKTSAAGVSEIDWKALTGVIVIALAGGILGLLWWNIRNRNKEKSVKQ | failed
MKKAVFSTLVIGLLSFQAHADYVAQPQSIAAQAARYSVMSIPELTQAAKSGQAGAQFYLGAHYQHGKNIPKDDKQAFTWFKAAADQGLSPAQLNVGRMYADGVGVAKNEAMARKYFEKAASNGDNRASYNLAMMEEQKKNYQGAYQWYELSTRDGMLDNKVINMSQSKKTALAANLTQDQIRQAVDRADKWIQAQ | failed
MSQLEIRDLWASIDGETILKGVNLVVPKGEVHALMGPNGAGKSTLGKILAGDPEYTVERGEILLDGENILELSPDERARKGLFLAFQYPVEVPGVTIANFLRLALQAKLGREVGVAEFWTKVKKALELLDWDESYLSRYLNEGFSGGEKKRNEILQLLVLEPTYAVLDETDSGLDIDALKVVARGVNAMRGPNFGALVITHYQRILNYIQPDKVHVMMDGRVVATGGPELALELEAKGYEWLKEKVKEGA | not failed
MTKLERMEHPAYSQLRPVTPSASVVLCPNPGYSSLEGTNSWVIRAPEDPRSIVIDPGPEDEGHLNVLHSKAEEVGLILLTHRHYDHADGAQRFRQLTNAPVRAMDPSYCAGAEEIHDGEIITIDGVTPQIEVVATPGHTRDSVSYFIWSGVPHESTLEGIVSGDTIAGRHTTMISETDGDLGEYLNSLAILEERGKDIPLLPGHGPDGQDVSSFARKYIERRELRLNQIREVWETRGRDVSMKDLIDAIYDDVDPVLRGAAEQSTHVAIRYLQAQEASASN | failed
MMTLVILLLFLLFCVLVFWISITFSIKYVLIFTAFLFSGLLVYYSFLTIAGLIHRNSKRKDRTLEHYPSVDIFIPAHNEGVVIKDTLEAMAKIEYPGKLTIYLLNDNSQDETPEIGDDFDKAYAHIRHIRVPPGEPKGKSRVLNYGLSISDGEYFCVYDADNQPEPHALRMLVEHAETTEDAVGAVGHVRTVNEKRNWLTRMISLEFQIFQLLMQSGRWLLFQTGSLTGTNMLLRRSALEELGGYDPYAIAEDAELTLRITQKGYLLPIVPESVTWEQEPEHLKILIKQRTRWLQGNLYILEKMFSSLSFFKGKLLVHSLQQVLVYVVFWLFLIISNVWFVIGLLGIFQIQYSIPLLFMWYVAYITYVSQLFSAQSVERTFTPTNIFISVIMYFTYAQLFTYLFIRSLILYLRAKSKKQVIGWDKTVRFKKDK | failed
MSADIEHIRQIMREADCLYTEAEVDAAIARVGAQINAELADRNPVVFCVMNGGLIFSGKLLTHLNFPLEASYLHATRYRNETTGGDLFWKAKPEVSFIDRDVLIIDDILDEGHTLGAIIDFCKHAGARAVHTAVLIDKDHDRKARPDLKADYVGLPCIDRYIFGFGMDYKGYWRNAAGIYAVKG | failed
MSQFWYSEETASRLAEELLQQAGEHGRIACLSAPSVYQKLKQLESVRSDGVSAVLLEFDRRFAAYGDEFVFYDYNNPLCLPEDLLPQSFDIVIADPPYLSEECLSKVTLTVKHLTKGKILLCTGAIMEEHAGKLLDLKMCSFLPRHNHNLANEFRCYVNYESRLLS | failed
RIGDGSPSHPPILERTLDDVPGPPMGILFPEVRTTSVRLIWQPPAAPNGIILAYQITHRLNTTTANTATVEVLAPSARQYTATGLKPESVYLFRITAQTRKGWGEAAEALVVTTEKR | not failed
MFSKGVDSLDRTQDDPVHCMPGLTAGLSGRLLLLTVIFVMIAEVLIFVPSVANMRLSWLRDRLNTAAAAGAVIDGLQAELPRSVQNDTLMATGAKLIALRKDGTSRLLAVAETPPGVDEQYDLSDVSQAAAVRDAFSTLLFGGNRVIRVFDVVGDSDTIIELVLGENKLRAAMLAYARNVFLISIVLSLVTAGLIFISINRIMIRPIRRLTLGMQNFSEDPGNPERIFVPEEGTDELSVAGRHLADMQTELQKTLRQQKNLVDLGLAVSKINHDMRNILSSAQLMSDRLVDAKDPMVRSFAPKLLRTIDRAVAYTGEVLAYGQATEGAPKRKIVPLSLLVRDVRDILALDPDSGIEFHDSVPPDLTVDADSEQLFRVIHNLCRNAVQALQSDVANSAPRHLSISAQRAGSVVSIVIDDNGPGMPRKAKENLFSAFRGSARSGGTGLGLVIARELVLAHGGTIALVEKPGPGTQFRIEIADRAASIQAARTA | failed
MKRDVLYNRIILSVFLLSLVSCVAIYYAQQTNQYNTNFLGMQLVFLAIGTLTCFGVSRLPVEFLRHHAIWLYVIMVITLLGILIPNPLVQNINGATRWYRFAGLSFQPSEVVKSIFIFVLAHFAVKYQAQKWKQLGILTVLTGIVLLLIMKQPDLGTTIVYGVTALAIILLAIKSTKLMVGIITLILTAATVGMYVVVYHISLLEKIGFHAYQFSRIQTWLDPTTDPDAVYQLNLSMKAVGSGMMTGSSGTNAYIPESHTDMIFSTIGHQFGFVGVSLLLILFMVLIHQLIMAALLMKNTFSSLVLAGFAVSFAFNIFENIGMTVGLMPLTGIPLPFISYGGSAVLGNFIAVGVVLAIIRSDADLIEEK | failed
MERPVPVRVEPRQLALDLPHAESLSREDFLEGSANTAALSLIESWPDWPNRIMMLVGPEGSGKSHLAAIWAELAGARSTAAQALNAAAVPGALATGAVVVEDLVPGSFDERALFHLMNMAREDEAYVLFTGRVEPSALSIELRDLKSRLRTVPVVSLLPPDDALFRALIVKFCADRQMCIDAALVGYLANRIDRSFVAARQVVEKLDTTALRLGRPVTRALASEVLRADLEHHHHHH | failed

Reference: a protein production outcome set (Wang et al. 2014)
